US20030135880A1, “Compositions and methods for halogenation reactions” (priority 2002, published 2003)

Biological target: PrnA (Pseudomonas fluorescens, UniProt P95480)
Test: Halogenation by PrnA expressed in transgenic plants, immunopurified and assayed in vitro (Example 5)
Format: biochemical
Set-up: made in house; host or cells: Transgenic Arabidopsis thaliana (Columbia) lines 3 and 12; leaf extract immunopurified on goat anti-PrnA sera with anti-goat-IgG-agarose
Conditions: immunopurified PrnA with Fre (20 microliter, 21 microgram/ml), overnight
Protocol: Arabidopsis thaliana, ecotype Columbia, is transformed (by the Agrobacterium-mediated transformation method) with the four nucleic acid molecules of the pyrrolnitrin operon, encoding PrnA, PrnB, PrnC & PrnD, each behind the ubiquitin promoter as described below in Example 6.
Two transformed lines (3 and 12) and a nontransformed control line are grown and leaves (1 g) harvested. The leaves are frozen in liquid N2, powdered in a mortar and extracted with 6 ml of LS buffer (50 mM HEPES, pH 7.5, 5 mM NaCl). After centrifugation at 5000×g for 15 min to pellet debris, the supernate is filtered through glass wool to remove residual particles.
PrnA is immunopurified by mixing extract (3 ml) with an affinity matrix. The affinity matrix is prepared by mixing for 30 minutes, at room temperature, 100 microliters of rabbit antigoat-IgG-agarose (purchased from Sigma) with 50 microliters of goat anti-PrnA sera. Then the agarose beads are washed three times with 1 ml of LS buffer. After mixing the 3 ml sample with the affinity matrix, unabsorbed material is removed from the beads by washing with LS buffer. A positive control sample is prepared by mixing 5 microliter of PrnA (0.36 microgram/microliter) purified from Pseudomonas fluorescens as described in Example 1 with 3 ml LS then treating in parallel with the plant extract samples. […]

B1: PrnA: PrnA purified from Pseudomonas fluorescens, positive control added to non-transformed plant extract (protein)
chain: MNKPIKNIVIVGGGTAGWMAASYLVRALQQQANITLIESAAIPRIGVGEATIPSLQKVFFDFLGIPEREWMPQVNGAFKAAIKFVNWRKSPDPSRDDHFYHLFGNVPNCDGVPLTHYWLRKREQGFQQPMEYACYPQPGALDGKLAPCLSDGTRQMSHAWHFDAHLVADFLKRWAVERGVNRVVDEVVDVRLNNRGYISNLLTKEGRTLEADLFIDCSGMRGLLINQALKEPFIDMSDYLLCDSAVASAVPNDDARDGVEPYTSSIAMNSGWTWKIPMLGRFGSGYVFSSHFTSRDQATADFLKLWGLSDNQPLNQIKFRVGRNKRAWVNNCVSIGLSSCFLEPLESTGIYFIYAALYQLVKHFPDTSFDPRLSDAFNAEIVHMFDDCRDFVQAHYFTTSRDDTPFWLANRHDLRLSDAIKEKVQRYKAGLPLTTTSFDDSTYYETFDYEFKNFWLNGNYYCIFAGLGMLPDRSLPLLQHRPESIEKAEAMFASIRREAERLRTSLPTNYDYLRSLRDGDAGLSRGQRGPKLAAQESL
level of 7-Cl-Trp found: 185 pmol
